B1: FhHDM-1: 90-residue polypeptide from F. hepatica, Helminth Defense Molecule-1 (SEQ ID NO:24); recombinant form minus N-terminal signal peptide, expressed in E. coli (protein, listed as Fasciola hepatica)
chain: MRFIVLLCLAEVLLAAYVEARPSEESREKLRESGRKMVKALRDAVTKAYEKARDRAMAYLAKDNLGEKITEVITILLNRLTDRLEKYAGN

Key:
[1] = system: immune cell invasion of pancreatic islets; assay: Insulitis in NOD mouse model of type 1 diabetes; format: in vivo; details: NOD mice, 6 injections every second day from 5 weeks, sacrificed at 10 weeks
Source text: Non-obese diabetic (NOD) mice (model of Type 1 diabetes) were given 6 injections (on every second day) of proteinaceous compound beginning at 5 weeks of age and animals were sacrificed at 10 weeks of age (i.e. when insulitis develops). Subsequently, formalin-fixed, paraffin-embedded pancreata was stained with haematoxylin and eosin to assess islet inflammation (i.e., insulitis).
Islet insulitis was scored as 0 (healthy islet), 1 (peri-insulitis up to 25% of islet occupied by leukocytes), 2 (leukocytic infiltration from 25% up to 50% of islet mass), 3 (leukocytic infiltration from 50% up to 75% of islet mass) or 4 (less than 25% of islet mass present). Accordingly, the greater the percentage of islets with higher insulitis scores the worse the prognosis for diabetes development would be for that animal.

RAW macrophages = assay: ATP induced macrophage cell death (LDH release); format: cell-based, murine; details: 20 μg/mL pre-treatment 1 h, then ATP 5 mM 2 h
Procedure: FIG. 16 is a graphical representation showing that FhHDM-1 P3 prevents ATP induced cell death in RAW macrophages. RAW macrophages were pretreated with either FhHDM-1 (20 μg/mL) or FhHDM-1 p3 (20 μg/mL) for 1 h, then washed and cultured in the presence of ATP (5 mM) for 2 h. Cell death (% cytotoxicity) was quantified according to the amount of LDH released by the cells into culture media.
Raw macrophages were pre-treated with either HDM (20 μg/mL) or FhHDM-1 P3 (20 μg/mL) for 1 h, washed and then cultured in the presence of ATP (5 mM) for 2 h. The culture supernatants were collected and assayed for LDH activity with an LDH release kit. The amount of LDH release by cells treated with ATP only was used to represent 100% cytotoxicity.

[2] = system: inflammatory response to bacterial lipopolysaccharide; assay: Inflammatory response to LPS in vivo after HDM pre-treatment; details: BALB/c mice, 1 μg i.p. 2 h before 1 μg LPS, 4 h later
Procedure: Female BALB/c mice were given 1 μg of FhHDM-1 i.p. and 2 h later given 1 μg of E. coli LPS i.p. After another 4 h, mice were sacrificed and serum and peritoneal macrophages assessed for the presence of inflammatory cytokines.
Female BALB/c mice (n=5) were given a single intraperitoneal injection of 1 μg of recombinant HDM two hours prior to an intraperitoneal injection of 1 μg of E. coli lipopolysaccharide. Four hours later, mice were sacrificed and blood and peritoneal cells were harvested. Peritoneal macrophages were isolated from lavage fluid based upon their adherent properties, and cultured overnight at 37° C. in RPMI supplemented with FCS. The quantities of inflammatory cytokines in both sera and culture media from macrophages were measured by ELISA.

peritoneal macrophages = assay: Alternative activation of peritoneal macrophages in mice (RT-PCR); format: in vivo; details: Balb/c mice, three i.p. injections of 5 μg
Procedure: FIG. 7 is a photographic representation showing the results of a RT-PCR analysis of macrophage RNA isolated from Balb/c mice given three i.p. injections of 5 μg native FhHDM-1 (NFh6) or recombinant FhHDM-1 (FH6).
Balb/c mice were given three intraperitoneal (i.p.) injections of 5 μg native (NFh6) or recombinant FhHDM-1.

| Molecule | immune cell invasion of pancreatic islets (insulitis) [1] | LDH release induced by ATP (cytotoxicity of ATP) (RAW macrophages) | IL-12 secreted by peritoneal macrophages [2] | TNFα secreted by peritoneal macrophages [2] | levels of IL-10 in circulation [2] | quantity of TNFα in sera [2] | expression of Arg-1 and Ym1 in isolated peritoneal macrophages (peritoneal macrophages) |
| --- | --- | --- | --- | --- | --- | --- | --- |
| KARDRAMAYLAKDNLGEKITEVITILLNRL (FhHDM-1 peptide 1 comprising a truncated amphipathic helix contained in FhHDM-1) [FhHDM-1 p1, peptide in which the amphipathic helix is truncated] | no significant activity |  |  |  |  |  |  |
| B1 |  | no significant effect | significantly less | significantly less | significantly reduced | also reduced this did not reach significance | increased expression |
